These results are taken from article PMC3591335.

Read-outs that look alike come from different tables or passages of the source.

What is called stoichiometry N is a count of units in the complex or per binding partner.

Assay [1] has as its target Cholera toxin B subunit expressed in E. coli (eCTB) (Vibrio cholerae) (UniProt P01556). In words: non-heat-denaturing SDS-PAGE.
Assay [2] has the same target. As to the kind of experiment: non-heat-denaturing SDS-PAGE. This is another data set of the same source.

As for “Cholera toxin B subunit expressed in E. coli (eCTB) (from UniProt P01556 22-124) (natural protein)”, the stoichiometry N turned out to be 5 in assay [1] and 10 in assay [2].
